Patent publication US20140087995A1 (published 2014)
Like-named read-outs stand apart in the source and are kept apart here. Numbered stars: 1 amine (or outer) side, 2 acyl side, 3 side chain; on linkers, the order of the positions; unused ones are H or OH. Bridge positions count the residues as written; N and C are the ends. Square brackets hold non-standard residues; d marks the D form. Side chains are listed from the residue outwards. Ends that are not written are not given here. * marks the point of attachment. C20 diacid = O=C(O)CCCCCCCCCCCCCCCCCCC(=O)*; γGlu = O=C(O)[C@H](CCC(=O)[*:2])N[*:1]; AEEA = NCCOCCOCC(=O)O

Legend:
[1] = target: T1, human calcitonin receptor (human, UniProt P30988 25-474); experiment: cell-based or functional assay
T1 sequence (looked up): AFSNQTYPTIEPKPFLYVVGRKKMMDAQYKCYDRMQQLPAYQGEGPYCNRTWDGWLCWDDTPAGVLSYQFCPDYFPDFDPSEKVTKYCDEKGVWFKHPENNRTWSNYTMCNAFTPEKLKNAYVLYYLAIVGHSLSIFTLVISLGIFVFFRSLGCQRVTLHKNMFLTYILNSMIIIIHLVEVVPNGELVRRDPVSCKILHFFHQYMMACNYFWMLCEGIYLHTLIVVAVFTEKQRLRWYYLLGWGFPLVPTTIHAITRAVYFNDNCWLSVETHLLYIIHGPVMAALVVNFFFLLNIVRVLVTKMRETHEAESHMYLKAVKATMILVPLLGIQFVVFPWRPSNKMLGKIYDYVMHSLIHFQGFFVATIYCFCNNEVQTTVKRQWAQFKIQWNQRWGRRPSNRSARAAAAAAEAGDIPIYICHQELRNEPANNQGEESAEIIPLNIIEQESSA

[2] = target: T2, human amylin receptor (amylin 3(a) receptor: human calcitonin receptor plus RAMP-3) (human, UniProt P30988 25-474; O60896 24-148); experiment: cell-based or functional assay
T2 sequence (looked up) 1: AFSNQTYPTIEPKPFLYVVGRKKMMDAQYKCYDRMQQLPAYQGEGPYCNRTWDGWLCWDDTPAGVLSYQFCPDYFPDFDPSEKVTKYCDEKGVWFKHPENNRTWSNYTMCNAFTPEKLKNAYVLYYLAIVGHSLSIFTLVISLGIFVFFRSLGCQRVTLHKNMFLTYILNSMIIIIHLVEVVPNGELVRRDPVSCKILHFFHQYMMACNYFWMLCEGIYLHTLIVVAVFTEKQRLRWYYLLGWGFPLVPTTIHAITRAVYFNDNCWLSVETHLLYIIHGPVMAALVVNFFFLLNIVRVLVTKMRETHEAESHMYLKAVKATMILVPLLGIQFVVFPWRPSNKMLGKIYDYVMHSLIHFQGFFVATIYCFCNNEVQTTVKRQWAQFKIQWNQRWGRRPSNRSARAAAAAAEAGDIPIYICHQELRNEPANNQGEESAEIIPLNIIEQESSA
T2 sequence (looked up) 2: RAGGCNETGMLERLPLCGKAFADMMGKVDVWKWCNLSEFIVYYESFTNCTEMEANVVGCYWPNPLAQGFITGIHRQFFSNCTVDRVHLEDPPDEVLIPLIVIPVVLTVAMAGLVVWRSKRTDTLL

[3] = target: T1, human calcitonin receptor; experiment: cell-based or functional assay; remark: listed apart in the source
[4] = target: T2, human amylin receptor (amylin 3(a) …); experiment: cell-based or functional assay; remark: listed apart in the source
[5] = target: T2, human amylin receptor (amylin 3(a) …); experiment: SPA competition, displacement of 125I-rat amylin from membranes of BHK cells with human calcitonin receptor + RAMP-3 (Assay V)
Method: (§1) The binding assay was performed using scintillation proximity assay (SPA) beads (RPNQ0001) from PerkinElmer and cell membranes from the Amylin 3(a)/CRE-luc cells (as described in Assay (II)) were used. Membranes were prepared in the following way; the cells were rinsed with PBS and incubated with Versene for approximately 5 min before harvesting. The cells were flushed with PBS and the cell-suspension was centrifuged for 5 min at 1000 rpm. Cells were homogenized (ultrathurrax) in a buffer containing 20 mM Na-HEPES and 10 mM EDTA (pH 7.4) and centrifuged at 20.000 rpm for 15 min. The resulting pellet was resuspended, homogenized and centrifuged (20.000 rpm, 15 min) in a buffer containing 20 mM Na-HEPES and 0.1 mM EDTA (pH 7.4, buffer 2). The resulting pellet was resuspended in buffer 2 and protein concentration was measured (BCA protein Assay, Pierce). The homogenate was kept cold during the whole procedure. The membranes were kept at −80° C. until use. The assay was performed in a 384 well Optiplate (PerkinElmer) in a total volume of 40 ul. Membranes were mixed with SPA beads. Final concentration of membranes 35 ng/μL final and SPA beads was 0.05 mg/well. Test-compounds were dissolved in DMSO and further diluted in assay buffer (50 mM Hepes, pH 7.4, 1 mM CaCl2, 5 mM MgCl₂, 0.1% OA and 0.02% Tween20). […] The final mixture was incubated with shaking at 400 rpm for 120 min at 25° C. prior to centrifugation (1500 rpm, 10 min). Samples were analyzed on TopCounter™ (Packard). The IC₅₀ was calculated using (one site binding competition analysis) GraphPad Prism5 as a measure of receptor affinity.

[6] = target: T2, human amylin receptor (amylin 3(a) …); experiment: as above; remark: listed apart in the source
Method: as §1

[7] = target: T3, rat amylin receptor (rat calcitonin receptor + rat RAMP 3) (rat, UniProt P32214 25-516; Q9JJ73 23-147); experiment: SPA competition binding, displacement of 125I-rat amylin from membranes of BHK tk'ts 13 cells with rat calcitonin receptor + rat RAMP 3 (Assay VI)
T3 construct: whole, on cells; Receptor complex in cell membranes prepared from transiently transfected BHK tk'ts 13 cells (Assay VI); also called rAmylin-R; rat amylin 3(a) receptor
T3 sequence (looked up) 1: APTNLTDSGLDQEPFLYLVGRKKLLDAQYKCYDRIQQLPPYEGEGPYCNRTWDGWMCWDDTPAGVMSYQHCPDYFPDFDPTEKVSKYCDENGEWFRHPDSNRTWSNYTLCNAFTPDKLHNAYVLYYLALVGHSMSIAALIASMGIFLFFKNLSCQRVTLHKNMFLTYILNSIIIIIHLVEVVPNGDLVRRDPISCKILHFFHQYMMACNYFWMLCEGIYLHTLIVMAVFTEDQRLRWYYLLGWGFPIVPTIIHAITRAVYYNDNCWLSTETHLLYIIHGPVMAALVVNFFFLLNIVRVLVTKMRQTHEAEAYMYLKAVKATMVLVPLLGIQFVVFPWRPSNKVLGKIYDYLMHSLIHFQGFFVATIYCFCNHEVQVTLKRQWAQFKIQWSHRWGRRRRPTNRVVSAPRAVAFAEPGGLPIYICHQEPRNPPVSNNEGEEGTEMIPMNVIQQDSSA
T3 sequence (looked up) 2: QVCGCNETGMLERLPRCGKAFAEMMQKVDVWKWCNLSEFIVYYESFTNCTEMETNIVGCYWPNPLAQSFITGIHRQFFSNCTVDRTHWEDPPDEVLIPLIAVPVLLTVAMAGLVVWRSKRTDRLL
Method: as §1
Cells were grown in DMEM with 10% FBS and 1% Pen/Strep. Approximately 48 hours after transfection, the cells were harvested and membranes were prepared.

[8] = target: T4, rat calcitonin receptor (rat, UniProt P32214 25-516); experiment: SPA competition binding, displacement of 125I-Calcitonin from membranes of BHK tk'ts 13 cells with rat calcitonin receptor (Assay VIII)
T4 construct: whole, on cells; In cell membranes prepared from transiently transfected BHK tk'ts 13 cells (Assay VIII); also called rCTR; rat calcitonin (a) receptor
T4 sequence (looked up): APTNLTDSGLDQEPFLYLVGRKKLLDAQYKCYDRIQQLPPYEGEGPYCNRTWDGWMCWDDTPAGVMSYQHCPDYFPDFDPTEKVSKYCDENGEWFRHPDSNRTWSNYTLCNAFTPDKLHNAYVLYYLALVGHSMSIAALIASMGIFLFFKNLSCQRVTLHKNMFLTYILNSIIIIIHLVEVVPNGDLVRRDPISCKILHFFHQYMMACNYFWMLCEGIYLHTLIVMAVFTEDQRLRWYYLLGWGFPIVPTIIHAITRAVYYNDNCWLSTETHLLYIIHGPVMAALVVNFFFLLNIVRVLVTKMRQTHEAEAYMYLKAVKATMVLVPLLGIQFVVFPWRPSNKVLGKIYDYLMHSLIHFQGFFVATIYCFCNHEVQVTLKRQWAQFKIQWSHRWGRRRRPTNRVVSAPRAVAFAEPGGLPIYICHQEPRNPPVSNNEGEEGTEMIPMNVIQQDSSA

Binder | hCTR funct. EC50 (pM) [1] [pM] | Ratio hCT/hAmylin funct. [2] | hAmylin-R funct. EC50 (pM) [2] [pM] | hCTR funct. EC50 (pM) [3] [pM] | Ratio hCT/hAmylin funct. [4] | hAmylin-R funct. EC50 (pM) [4] [pM] | IC50 [5] [nM] | IC50 [6] [nM] | IC50 [7] [nM] | IC50 [8] [nM]
K([AEEA-γGlu-C20 diacid])CNTATCATQRLANFLRHSSPNFGAIPSSTPVGSHTY-NH2 (disulfide 2-7; N-terminus assumed; SMILES CC[C@H](C)[C@H](NC(=O)[C@H](C)NC(=O)CNC(=O)[C@H](Cc1ccccc1)NC(=O)[C@H](CC(N)=O)NC(=O)[C@@H]1CCCN1C(=O)[C@H](CO)NC(=O)[C@H](CO)NC(=O)[C@H](Cc1c[nH]cn1)NC(=O)[C@H](CCCNC(=N)N)NC(=O)[C@H](CC(C)C)NC(=O)[C@H](Cc1ccccc1)NC(=O)[C@H](CC(N)=O)NC(=O)[C@H](C)NC(=O)[C@H](CC(C)C)NC(=O)[C@H](CCCNC(=N)N)NC(=O)[C@H](CCC(N)=O)NC(=O)[C@@H](NC(=O)[C@H](C)NC(=O)[C@@H]1CSSC[C@H](NC(=O)[C@@H](N)CCCCNC(=O)COCCOCCNC(=O)CC[C@H](NC(=O)CCCCCCCCCCCCCCCCCCC(=O)O)C(=O)O)C(=O)N[C@@H](CC(N)=O)C(=O)N[C@@H]([C@@H](C)O)C(=O)N[C@@H](C)C(=O)N[C@@H]([C@@H](C)O)C(=O)N1)[C@@H](C)O)C(=O)N1CCC[C@H]1C(=O)N[C@@H](CO)C(=O)N[C@@H](CO)C(=O)N[C@H](C(=O)N1CCC[C@H]1C(=O)N[C@H](C(=O)NCC(=O)N[C@@H](CO)C(=O)N[C@@H](Cc1c[nH]cn1)C(=O)N[C@H](C(=O)N[C@@H](Cc1ccc(O)cc1)C(N)=O)[C@@H](C)O)C(C)C)[C@@H](C)O, also called compound 57) | 3120 | 35 | 89 | 3120 | 35 | 89 | 0.115 | 0.115 |  | 
K([AEEA-γGlu-C20 diacid])CNTATCATQRLANFLRHSSPNFGAIPSSTNVGPHTY-NH2 (disulfide 2-7; N-terminus assumed; SMILES CC[C@H](C)[C@H](NC(=O)[C@H](C)NC(=O)CNC(=O)[C@H](Cc1ccccc1)NC(=O)[C@H](CC(N)=O)NC(=O)[C@@H]1CCCN1C(=O)[C@H](CO)NC(=O)[C@H](CO)NC(=O)[C@H](Cc1c[nH]cn1)NC(=O)[C@H](CCCNC(=N)N)NC(=O)[C@H](CC(C)C)NC(=O)[C@H](Cc1ccccc1)NC(=O)[C@H](CC(N)=O)NC(=O)[C@H](C)NC(=O)[C@H](CC(C)C)NC(=O)[C@H](CCCNC(=N)N)NC(=O)[C@H](CCC(N)=O)NC(=O)[C@@H](NC(=O)[C@H](C)NC(=O)[C@@H]1CSSC[C@H](NC(=O)[C@@H](N)CCCCNC(=O)COCCOCCNC(=O)CC[C@H](NC(=O)CCCCCCCCCCCCCCCCCCC(=O)O)C(=O)O)C(=O)N[C@@H](CC(N)=O)C(=O)N[C@@H]([C@@H](C)O)C(=O)N[C@@H](C)C(=O)N[C@@H]([C@@H](C)O)C(=O)N1)[C@@H](C)O)C(=O)N1CCC[C@H]1C(=O)N[C@@H](CO)C(=O)N[C@@H](CO)C(=O)N[C@H](C(=O)N[C@@H](CC(N)=O)C(=O)N[C@H](C(=O)NCC(=O)N1CCC[C@H]1C(=O)N[C@@H](Cc1c[nH]cn1)C(=O)N[C@H](C(=O)N[C@@H](Cc1ccc(O)cc1)C(N)=O)[C@@H](C)O)C(C)C)[C@@H](C)O, also called compound 58) | 1030 | 21.9 | 47 | 1030 | 21.9 | 47 | 0.088 | 0.088 |  | 
K([γGlu-γGlu-C20 diacid])CNTATCATQRLA[dD]FLRHSSPNFGAIPSSTNVGSRTY-NH2 (disulfide 2-7; N-terminus assumed; SMILES CC[C@H](C)[C@H](NC(=O)[C@H](C)NC(=O)CNC(=O)[C@H](Cc1ccccc1)NC(=O)[C@H](CC(N)=O)NC(=O)[C@@H]1CCCN1C(=O)[C@H](CO)NC(=O)[C@H](CO)NC(=O)[C@H](Cc1c[nH]cn1)NC(=O)[C@H](CCCNC(=N)N)NC(=O)[C@H](CC(C)C)NC(=O)[C@H](Cc1ccccc1)NC(=O)[C@@H](CC(=O)O)NC(=O)[C@H](C)NC(=O)[C@H](CC(C)C)NC(=O)[C@H](CCCNC(=N)N)NC(=O)[C@H](CCC(N)=O)NC(=O)[C@@H](NC(=O)[C@H](C)NC(=O)[C@@H]1CSSC[C@H](NC(=O)[C@@H](N)CCCCNC(=O)CC[C@H](NC(=O)CC[C@H](NC(=O)CCCCCCCCCCCCCCCCCCC(=O)O)C(=O)O)C(=O)O)C(=O)N[C@@H](CC(N)=O)C(=O)N[C@@H]([C@@H](C)O)C(=O)N[C@@H](C)C(=O)N[C@@H]([C@@H](C)O)C(=O)N1)[C@@H](C)O)C(=O)N1CCC[C@H]1C(=O)N[C@@H](CO)C(=O)N[C@@H](CO)C(=O)N[C@H](C(=O)N[C@@H](CC(N)=O)C(=O)N[C@H](C(=O)NCC(=O)N[C@@H](CO)C(=O)N[C@@H](CCCNC(=N)N)C(=O)N[C@H](C(=O)N[C@@H](Cc1ccc(O)cc1)C(N)=O)[C@@H](C)O)C(C)C)[C@@H](C)O, residue 14 is D-aspartic acid (printed 14d)) |  |  |  |  |  |  |  |  | 1.69 | 536
